Target: T1, PSMA (Homo sapiens, UniProt Q04609)
T1 construct: the extracellular domains of EGFR, HER2, and PSMA that are immobilized on the surface of CM5 biosensor chips; purchased R&D System, Minneapolis, Minn
Assay: BIAcore surface plasmon resonance on immobilized PSMA
Assay type: binding
Settings: for binding to the PSMA receptor: PSMA monomer injected at 100 uM
Description: BIAcore 2000 (BIAcore AB, Uppsala, Sweden) was used for surface plasmon resonance (SPR) analysis. Purified extracellular domain of recombinant human EGFR ECD-Fc, HER2 ECD-Fc, and PSMA were diluted in 10 mM sodium acetate pH 5.0 and immobilized on a CM5 sensor chip (GE healthcare) by amine coupling according to the manufacturer's instruction (about 2,500 resonance unit). Various concentrations of monomeric and heptameric targeting ligands were injected onto the flow cell in an HBS-P buffer (10 mM HEPES pH7.4, 150 mM NaCl, and 0.005% surfactant P20) at a flow rate of 20 μl/min or 30 μl/min. The dissociation constants (Kd) were calculated using BIAevaluation software (BIAcore) by fitting data on one to one Langmuir binding model.
The BIAcore 2000 (BIAcore AB, Uppsala, Sweden) was used for surface plasmon resonance analysis. 1 μg of purified extracellular domain of recombinant human EGFR ECD-Fc, HER2 ECD-Fc, or PSMA (R&D System, Minneapolis, Minn.), was diluted in a buffer containing 10 mM sodium acetate pH 5.0 and immobilized on a CM5 sensor chip (GE healthcare, Piscataway, N.J.) by amine coupling according to the manufacturer's instruction (about 2,500 resonance units). Various concentrations of monomeric or heptameric ligands were injected onto the flow cell in an HBS-P buffer (10 mM HEPES pH 7.4, 150 mM NaCl, and 0.005% surfactant P20) at a flow rate of 20 μl/min. The dissociation equilibrium constant (KD), the association rate (Ka) and the dissociation rate (Kd) were calculated using the BIAevaluation software (BIAcore) by fitting the data on a one to one Langmuir binding model.

T1 sequence (Q04609 44-750 limits assumed): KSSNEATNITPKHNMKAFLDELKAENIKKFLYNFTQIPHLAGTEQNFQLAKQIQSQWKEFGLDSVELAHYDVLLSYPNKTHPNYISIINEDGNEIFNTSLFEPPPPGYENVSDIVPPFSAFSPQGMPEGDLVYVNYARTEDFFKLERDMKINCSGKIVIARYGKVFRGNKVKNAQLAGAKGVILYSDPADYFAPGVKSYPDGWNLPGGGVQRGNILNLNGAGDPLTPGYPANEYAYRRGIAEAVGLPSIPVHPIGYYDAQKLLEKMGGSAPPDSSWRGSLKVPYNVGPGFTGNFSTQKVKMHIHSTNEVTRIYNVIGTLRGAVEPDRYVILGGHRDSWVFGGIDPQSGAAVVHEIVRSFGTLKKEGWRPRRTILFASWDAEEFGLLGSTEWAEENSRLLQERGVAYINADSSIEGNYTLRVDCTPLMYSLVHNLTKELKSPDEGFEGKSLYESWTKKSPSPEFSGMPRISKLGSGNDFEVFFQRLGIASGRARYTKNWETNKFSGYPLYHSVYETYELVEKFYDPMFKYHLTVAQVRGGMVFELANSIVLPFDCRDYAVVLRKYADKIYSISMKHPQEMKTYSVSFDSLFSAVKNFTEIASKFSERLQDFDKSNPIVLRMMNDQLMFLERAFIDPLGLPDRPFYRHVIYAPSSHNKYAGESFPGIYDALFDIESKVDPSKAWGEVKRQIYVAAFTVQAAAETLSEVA

B1: PSMA monomer: PSMA-binding peptide WQPDTAHHWATL on a truncated, nonfunctional Sm1 domain lacking the C-terminal 23 residues (protein)
chain: MWQPDTAHHWATLGPQPQPKPQPKPEPEPQPQGGMPPRPLDVLNRSLKSPVIVRLKGGREFRGTLDGYDIHMNLVLLDAEEIQNGEVVHHHHHH
binding to the PSMA receptor: did not bind

B2: PSMA-Heptamer: AF-Sm1 heptamerization domain fused with the 12 amino-acid PSMA-binding peptide WQPDTAHHWATL, self-assembled heptamer (protein)
chain: MWQPDTAHHWATLGPQPQPKPQPKPEPEPQPQGGMPPRPLDVLNRSLKSPVIVRLKGGREFRGTLDGYDIHMNLVLLDAEEIQNGEVVRKVGSVVIRGDTVVFVSPAPGGEHHHHHH
binding to the PSMA receptor: bind marginally | Kd (dissociation rate, one to one Langmuir model): 1.09e-06 s⁻¹
